The target of the assay is glycosylphosphatidylinositol-anchored avidin test probe (avidin/CD14 fusion) (chicken | human) (UniProt P02701).

What is called stoichiometry N is a count of units in the complex or per binding partner.

Turning to “glycosylphosphatidylinositol-anchored avidin test probe (avidin/CD14 fusion) (from UniProt P02701 25-152; P08571 318-375)”, the stoichiometry N was determined as 4.
